{
  "source": "patent US20170051072A1",
  "about": "(UNITED STATES OF AMERICA AS REPRESENTED BY THE SECRETARY …, published 2017)",
  "binders": {"B1": {"name": "IgG VH 001/15438 + VL 000/15456 (antibody, V domains shown)", "VH": "QVQLVQSGAEVKKPGASVKVSCKASGYSFTGYTMNWVRQAPGQGLEWMGLITPYNGASSYNQKFRGKATMTVDTSTSTVYMELSSLRSEDTAVYYCARGGYDGRGFDYWGQGTLVTVSS", "VL": "not shown"}, "B2": {"name": "IgG VH 001/15438 + VL 001/15457 (antibody, V domains shown)", "VH": "B1 VH", "VL": "DIQMTQSPSSLSASVGDRVTITCSASSSVSYMHWYQQKSGKAPKLLIYDTSKLASGVPSRFSGSGSGTDFTLTISSLQPEDFATYYCQQWSKHPLTFGQGTKLEIK", "notes": "also called VL001/VH001; VL01/VH01"}, "B3": {"name": "IgG VH 000/15437 + VL 001/15457 (antibody, V domains shown)", "VH": "not shown", "VL": "B2 VL"}},
  "key": {"[1]": {"molecular_target": "T1, human mesothelin with His-tag (in house) (human, UniProt Q13421 296-598, limits assumed)", "T1 construct": "also called huMesothelin; MSLN; not shown: His-tag", "T1 sequence (Q13421 other isoform, or with tags, fused parts or gaps limits assumed)": "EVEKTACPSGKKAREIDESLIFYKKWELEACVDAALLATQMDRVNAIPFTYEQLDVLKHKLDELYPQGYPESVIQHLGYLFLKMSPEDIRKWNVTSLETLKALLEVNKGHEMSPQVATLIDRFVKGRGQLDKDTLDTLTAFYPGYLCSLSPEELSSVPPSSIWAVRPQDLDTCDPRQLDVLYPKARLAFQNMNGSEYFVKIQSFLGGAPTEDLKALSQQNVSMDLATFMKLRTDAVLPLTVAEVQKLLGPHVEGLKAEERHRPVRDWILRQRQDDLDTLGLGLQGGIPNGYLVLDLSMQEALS", "experiment": "ELISA, IgG on captured His-huMesothelin (in house)"}, "[2]": {"molecular_target": "T2, human mesothelin with His-tag (R&D Systems) (human, UniProt Q13421 296-580)", "T2 construct": "also called huMesothelin; MSLN; not shown: His-tag", "T2 sequence (Q13421 other isoform, or with tags, fused parts or gaps limits assumed)": "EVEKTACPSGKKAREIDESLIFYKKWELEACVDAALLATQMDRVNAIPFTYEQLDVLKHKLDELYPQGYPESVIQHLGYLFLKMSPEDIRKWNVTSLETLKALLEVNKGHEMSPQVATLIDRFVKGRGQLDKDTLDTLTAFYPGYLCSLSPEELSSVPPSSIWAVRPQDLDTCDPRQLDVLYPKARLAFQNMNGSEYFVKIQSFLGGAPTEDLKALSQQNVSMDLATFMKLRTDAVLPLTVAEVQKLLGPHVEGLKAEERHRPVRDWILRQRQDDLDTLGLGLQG", "experiment": "ELISA, IgG on captured His-huMesothelin (R&D)"}, "human mesothelin (SPR)": {"molecular_target": "T3, human mesothelin (SPR) (human, UniProt Q13421 296-598, limits assumed)", "T3 construct": "also called human MSLN", "experiment": "SPR, IgG captured on Protein A, 50 nM human mesothelin, 25 C, 1:1 fit"}},
  "note": "Values joined by “and” are separate entries in the source; they are usually repeats but may differ in a detail not shown here. Equal entries are not always repeated.",
  "data": [
    {"binder": "B1", "values": [
      {"measurement": "EC50", "setting": "[1]", "result": 0.032, "unit": "µg/mL"},
      {"measurement": "EC50", "setting": "[2]", "result": 0.0228, "unit": "µg/mL"}
    ]},
    {"binder": "B2", "values": [
      {"measurement": "Kd", "setting": "human mesothelin (SPR)", "result": "0.263 nM and 0.26 nM"},
      {"measurement": "EC50", "setting": "[1]", "result": 0.0203, "unit": "µg/mL"},
      {"measurement": "EC50", "setting": "[2]", "result": 0.0155, "unit": "µg/mL"}
    ]},
    {"binder": "B3", "values": [
      {"measurement": "EC50", "setting": "[1]", "result": 0.0178, "unit": "µg/mL"},
      {"measurement": "EC50", "setting": "[2]", "result": 0.0182, "unit": "µg/mL"}
    ]}
  ]
}
